Target: the molecule itself
Experiment: SEC

B1: KdnB from Shewanella oneidensis (enzyme, S. oneidensis, UniProt Q8EEB0 1-356, looked up)
chain: MSFKNFKVVEKMIFGRGSFVQLDDVLAAQRKADDDFVVFLVDDVHQGKPLEARIPVKAQDLLIWVNVDEEPSTIQIDALTEQVQAFNGKLPVSVVGLGGGSTMDVAKAVSLMLTNPGGSAMYQGWDLIKKPAVHHIGIPTISGTGAEASRTAVLCGPVRKLGLNSDYTVFDQIIMDSELIDGVETDQWFYTGMDCYIHCVESLEGTFLNEFSKAYAEKAMDLCRQVYLEDHPEKDDKLMMASFMGGMSIAYSQVGACHAVSYGLSYILGYHHGIGNCIAFDVLEEFYPEGVAEFRLMMKKHNITLPKNICKDLPDETIAKMVAVTKSMGPLWANVYGPTWEEKVTDEMLTALFRRI
stoichiometry N: 2

— paper PMC5095702 (Biochemistry, 2016)
